Assay results published in patent US20250043302A1, “MUTATED HYDROXYPHENYLPYRUVATE DIOXYGENASE POLYPEPTIDE, AND CODING GENE AND USE THEREOF” (BEIJING DABEINONG BIOTECHNOLOGY CO., LTD., priority 2021, published 2025).

B1: HvHPPDm-F383W-02: nucleotide sequence encoding Hordeum vulgare HPPD with F383W; vector DBN11764 (nucleic acid)
DNA: ATGCCGCCGACGCCCACCACCCCAGCAGCTACCGGAGCTGCGGCTGCAGTAACCCCTGAGCATGCTCGGCCCCACAGGATGGTGAGGTTTAATCCAAGATCAGATCGTTTTCATACACTCTCGTTCCACCATGTTGAGTTCTGGTGCGCCGACGCGGCTTCAGCGGCCGGGAGGTTCGCCTTCGCGCTGGGGGCCCCTCTTGCCGCGCGTAGTGATTTGTCTACTGGGAATTCAGCGCACGCGTCCCAGCTTCTCCGAAGCGGCAGTCTCGCCTTTCTCTTCACTGCACCATATGCAAATGGATGTGATGCAGCAACTGCTTCCCTGCCGAGCTTTTCTGCGGATGCCGCGAGGCGATTCAGTGCTGACCATGGGATCGCCGTCCGGTCAGTTGCTCTTAGAGTGGCTGATGCTGCTGAGGCATTCAGGGCTTCAAGGCGTCGTGGTGCACGCCCGGCGTTTGCCCCGGTTGATCTTGGGCGGGGGTTTGCTTTTGCAGAGGTGGAGCTGTACGGCGACGTGGTGCTCCGATTTGTTTCTCACCCGGACGGCACTGATGTGCCCTTCTTGCCAGGATTTGAAGGTGTGACCAACCCTGATGCCGTGGATTATGGACTCACAAGATTTGATCATGTGGTTGGCAATGTTCCTGAATTGGCACCTGCTGCCGCTTACATCGCAGGTTTTACTGGCTTCCATGAATTTGCTGAATTCACGGCGGAGGATGTTGGTACAACTGAGTCAGGGCTGAACAGTGTTGTTTTAGCCAACAACTCAGAAGGAGTTCTCCTTCCCTTGAATGAACCTGTTCATGGAACCAAGCGCCGCTCCCAAATTCAAACATTTCTTGAGCACCACGGCGGCCCTGGTGTTCAACATATTGCTGTCGCCTCTAGCGACGTCCTGCGTACATTACGCAAGATGAGGGCTCGGTCCGCAATGGGTGGTTTCGACTTCCTCCCTCCACCATTGCCAAAATATTATGAAGGCGTCAGAAGACTTGCAGGAGATGTCCTCTCTGAAGCTCAGATCAAGGAGTGCCAAGAACTTGGCGTCTTGGTTGATAGAGATGACCAAGGAGTACTTCTGCAGATATTTACAAAACCCGTTGGTGACAGGCCAACTCTTTGGCTGGAGATGATTCAGAGAATTGGCTGCATGGAGAAAGATGAAAGAGGCGAGGAGTACCAGAAGGGTGGTTGTGGAGGCTTTGGAAAAGGAAACTTCTCAGAGCTGTTCAAGTCCATAGAAGATTACGAGAAAAGTCTAGAAGCCAAGCAGTCTGCTGCAGTGCAAGGTTCCTGA
modifications: HvHPPDm-F383W-02 Nucleotide Sequence
notes: vector DBN11764
B2: ZmHPPD-02: nucleotide sequence encoding wild-type Zea mays HPPD; vector DBN11766 (nucleic acid)
DNA: ATGCCACCCACACCCACAGCAGCAGCGGCGGGCGCAGCGGTCGCAGCGGCGTCAGCGGCGGAGCAAGCGGCGTTCAGATTGGTTGGTCACCGCAACTTCGTGAGATTCAATCCTCGCTCAGATAGATTCCATACTCTGGCCTTCCACCATGTTGAGCTTTGGTGCGCTGATGCTGCTTCTGCTGCTGGAAGGTTCAGCTTCGGTTTGGGTGCTCCCCTCGCTGCTAGATCTGATTTGAGCACTGGTAACTCAGCACATGCTTCCCTCCTGCTTAGATCTGGCTCTCTGAGCTTCCTTTTCACTGCTCCATATGCTCATGGTGCTGATGCTGCTACAGCTGCTCTCCCTTCATTCTCCGCTGCTGCTGCTAGGAGATTCGCTGCTGATCACGGATTGGCTGTGAGGGCTGTTGCACTTAGAGTTGCTGATGCTGAGGAGGCCTTCCGCACCTCTGTTGCTGCTGGAGCCAGACCAGCTTTCGGACCTGTTGATCTCGGAAGGGGTTTCCGCCTGGCTGAGGTGGAGCTTTACGGCGATGTGGTTCTGCGCTACGTTAGCTATCCTGATGGTGCTGCTGGTGAACCTTTCCTTCCAGGATTCGAGGGTGTGGCCTCACCAGGTGCCGCTGATTACGGCCTGTCCAGATTCGACCACATTGTTGGAAATGTTCCTGAGCTTGCTCCAGCTGCTGCCTACTTCGCTGGCTTCACCGGATTCCATGAGTTCGCCGAGTTCACCACTGAGGATGTGGGAACTGCTGAGTCTGGTTTGAATAGCATGGTGCTCGCCAACAATTCAGAGAACGTTTTGCTCCCTCTGAATGAGCCCGTGCACGGAACAAAGAGAAGGTCCCAGATTCAAACCTTCTTGGATCACCACGGCGGCCCAGGTGTTCAGCATATGGCTCTCGCCTCCGATGACGTGTTGAGAACCCTCAGGGAGATGCAAGCCAGGTCTGCTATGGGTGGCTTCGAGTTCATGGCCCCACCTACAAGCGATTACTATGATGGTGTGCGCAGAAGGGCTGGCGACGTTCTTACCGAGGCTCAGATCAAGGAGTGCCAAGAGCTGGGCGTGCTTGTTGATAGAGATGACCAGGGAGTTCTGCTTCAAATTTTCCCCAAGCCAGTGGGCGACAGGCCTACTTTGTTCCTCGAGATTATCCAGAGAATCGGATGCATGGAGAGGGATGAGAAGGGTCAGGAGTACCAAAAGGGAGGTTGCGGCGGATTCGGCAAGGGAAATTTCTCACAACTCTTCAAGTCCATCGAGGACTATGAAAAGAGTCTGGAAGCGATGCAGGCAGCAGCAGCAGCAACCGCACAGGGGTCGTGA
modifications: ZmHPPD-02 Nucleotide Sequence
notes: vector DBN11766

What was measured:
Type in all cases: in vivo
[1] = test system: Arabidopsis thaliana T1 plants; test: Mesotrione tolerance of transgenic Arabidopsis thaliana T1 plants (spray, bleached leaf area grade, damage score); set-up: Scores: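 damage score 0-100 computed as Σ(N×S)/(T×M)×100 over grades 0-3 with higher meaning more damage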; conditions: Arabidopsis thaliana T1 plants; for Grade 0 (classification and statistics of the grade of pesticide damage; number of plants) / Grade 1 (classification and statistics of the grade of pesticide damage; number of plants) / Grade 2 (classification and statistics of the grade of pesticide damage; number of plants) / Grade 3 (classification and statistics of the grade of pesticide damage; number of plants): 16 plants
Summary of the method: (§1)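 Read-out: per-plant damage grade 0–3 from proportion of bleached leaf area at 7 DAT (1 <50%, 2 >50%, 3 100%). Plants were T1 transformants, glufosinate-selected, plus wild-type CK, sprayed 18 days post-sowing. Rates: topramezone 25–200, isoxaflutole 35–280, mesotrione 52.5–420 g ai/ha.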

[2] = test system: Arabidopsis thaliana T1 plants; test: Topramezone tolerance of transgenic Arabidopsis thaliana T1 plants (spray, bleached leaf area grade, damage score); conditions: 7 DAT, Table 4; for Classification and statistics of the grade of pesticide damage: Grade 0 / Classification and statistics of the grade of pesticide damage: Grade 1 / Classification and statistics of the grade of pesticide damage: Grade 2 / Classification and statistics of the grade of pesticide damage: Grade 3: number of plants; for Scores: pesticide damage score 0-100
Summary of the method: as §1

[3] = test system: Arabidopsis thaliana T1 plants; test: Isoxaflutole tolerance of transgenic Arabidopsis thaliana T1 plants (spray, bleached leaf area grade, damage score); set-up: Scores (pesticide damage): scale not given here; conditions: spray, Arabidopsis thaliana T1 plants; for Classification and statistics of the grade of pesticide damage: Grade 0 (number of plants) / Classification and statistics of the grade of pesticide damage: Grade 1 (number of plants) / Classification and statistics of the grade of pesticide damage: Grade 2 (number of plants) / Classification and statistics of the grade of pesticide damage: Grade 3 (number of plants): 16 plants
Summary of the method: as §1

[4] = isoxaflutole 35 g ai/ha (0.5x field concentration)
[5] = isoxaflutole 70 g ai/ha (1x field concentration)

Row | Molecule | Resistance evaluation ([1]; mesotrione 52.5 g ai/ha) | Scores ([1]; mesotrione 52.5 g ai/ha) | Grade 0 (classification and statistics of the grade of pesticide damage; number of plants) ([1]; mesotrione 52.5 g ai/ha) | Grade 1 (classification and statistics of the grade of pesticide damage; number of plants) ([1]; mesotrione 52.5 g ai/ha) | Grade 2 (classification and statistics of the grade of pesticide damage; number of plants) ([1]; mesotrione 52.5 g ai/ha) | Grade 3 (classification and statistics of the grade of pesticide damage; number of plants) ([1]; mesotrione 52.5 g ai/ha) | Resistance evaluation ([1]; mesotrione 105 g ai/ha) | Scores ([1]; mesotrione 105 g ai/ha) | Grade 0 (classification and statistics of the grade of pesticide damage; number of plants) ([1]; mesotrione 105 g ai/ha) | Grade 1 (classification and statistics of the grade of pesticide damage; number of plants) ([1]; mesotrione 105 g ai/ha) | Grade 2 (classification and statistics of the grade of pesticide damage; number of plants) ([1]; mesotrione 105 g ai/ha) | Grade 3 (classification and statistics of the grade of pesticide damage; number of plants) ([1]; mesotrione 105 g ai/ha) | Classification and statistics of the grade of pesticide damage: Grade 0 ([2]; topramezone 25 g ai/ha (1×)) | Classification and statistics of the grade of pesticide damage: Grade 1 ([2]; topramezone 25 g ai/ha (1×)) | Classification and statistics of the grade of pesticide damage: Grade 2 ([2]; topramezone 25 g ai/ha (1×)) | Classification and statistics of the grade of pesticide damage: Grade 3 ([2]; topramezone 25 g ai/ha (1×)) | Classification and statistics of the grade of pesticide damage: Grade 0 ([2]; topramezone 100 g ai/ha (4×)) | Classification and statistics of the grade of pesticide damage: Grade 1 ([2]; topramezone 100 g ai/ha (4×)) | Classification and statistics of the grade of pesticide damage: Grade 2 ([2]; topramezone 100 g ai/ha (4×)) | Classification and statistics of the grade of pesticide damage: Grade 3 ([2]; topramezone 100 g ai/ha (4×)) | also measured
1 | B1 | Moderately | 33 | 2 | 12 | 2 | 0 | Non-resistant | 100 | 0 | 0 | 0 | 16 | 4 | 6 | 5 | 1 | 0 | 0 | 0 | 16 | Scores ([2]; topramezone 25 g ai/ha (1×)): 40; Scores ([2]; topramezone 100 g ai/ha (4×)): 100; Resistance evaluation ([2]; topramezone 25 g ai/ha (1×)): poorly; Resistance evaluation ([2]; topramezone 100 g ai/ha (4×)): non-resistant (non-resistant plants (scores 68-100)); Resistance evaluation [3, 4]: Poorly; Scores (pesticide damage) [3, 4]: 67; Classification and statistics of the grade of pesticide damage: Grade 0 (number of plants) [3, 4]: 0; Classification and statistics of the grade of pesticide damage: Grade 1 (number of plants) [3, 4]: 1; Classification and statistics of the grade of pesticide damage: Grade 2 (number of plants) [3, 4]: 14; Classification and statistics of the grade of pesticide damage: Grade 3 (number of plants) [3, 4]: 1; Resistance evaluation [3, 5]: Non-resistant; Scores (pesticide damage) [3, 5]: 100; Classification and statistics of the grade of pesticide damage: Grade 0 (number of plants) [3, 5]: 0; Classification and statistics of the grade of pesticide damage: Grade 1 (number of plants) [3, 5]: 0; Classification and statistics of the grade of pesticide damage: Grade 2 (number of plants) [3, 5]: 0; Classification and statistics of the grade of pesticide damage: Grade 3 (number of plants) [3, 5]: 16
2 | B2 | Non-resistant | 100 | 0 | 0 | 0 | 16 | Non-resistant | 100 | 0 | 0 | 0 | 16 | 0 | 0 | 0 | 16 | 0 | 0 | 0 | 16 | Scores ([2]; topramezone 25 g ai/ha (1×)): 100; Scores ([2]; topramezone 100 g ai/ha (4×)): 100; Resistance evaluation ([2]; topramezone 25 g ai/ha (1×)): non-resistant (non-resistant plants (scores 68-100)); Resistance evaluation ([2]; topramezone 100 g ai/ha (4×)): non-resistant (non-resistant plants (scores 68-100)); Resistance evaluation [3, 4]: Non-resistant; Scores (pesticide damage) [3, 4]: 100; Classification and statistics of the grade of pesticide damage: Grade 0 (number of plants) [3, 4]: 0; Classification and statistics of the grade of pesticide damage: Grade 1 (number of plants) [3, 4]: 0; Classification and statistics of the grade of pesticide damage: Grade 2 (number of plants) [3, 4]: 0; Classification and statistics of the grade of pesticide damage: Grade 3 (number of plants) [3, 4]: 16; Resistance evaluation [3, 5]: Non-resistant; Scores (pesticide damage) [3, 5]: 100; Classification and statistics of the grade of pesticide damage: Grade 0 (number of plants) [3, 5]: 0; Classification and statistics of the grade of pesticide damage: Grade 1 (number of plants) [3, 5]: 0; Classification and statistics of the grade of pesticide damage: Grade 2 (number of plants) [3, 5]: 0; Classification and statistics of the grade of pesticide damage: Grade 3 (number of plants) [3, 5]: 16
